Results as given in the DeepSol protein solubility set.

Assay: soluble on expression in E. coli; label from the status in PepcDB or PDB records

| Sequence | soluble on expression in E. coli |
| --- | --- |
| MGSDKIHHHHHHMAIKNVSIVYPNRFGGGIACLAVHVLTSHLNKYRDISANAYFIENYSKIKNSDAILITLQYENDYFNVVKIVKELKAQNPNAIFIAGGPCAISNPLPIQEFFDVFVVGEIEGTDTMYQLINGNFEIPGVYVPKTYNNEKIKRIYPKKLGIDDYPISQVTHESGAYGKAYLLEIGRGCIRNCKFCMAKCIYAPPRYRKIEDLKHLVDEGLKNTDADKVSLIAPSVSDYRYVLDLCAHISEKNVSISPSSLRADTITDELLEYLNLKTLTIAPEAGSEVLRKKIDKGITEENILNAVDIAKTHGISTVKLYYMVGFPDETEEDIEEIINLTKKIKDNVRKVDVSINPMVPKPHTPFEDFEFDMDSKTKIKYIEKSLRKIKVSVDFEKFNSMVAQTVLARGGSELSKVLNESRNTIELIKNVDLDNYINKIEEKPWDFIEI | not soluble |
| MEESLKVGIAGLGTVGSSVVRILREKANSLTCQCGRSIKVVAVSARDKSRNRGIDLSDVKWFDSPVEMASSDEIDVFVELIGGESDVVYAAVKKALETGHHVVTANKALLAQHGGRLAVSAEKKGVFLHFEAAVAGGIPIIKVMRESLVSNHISRIYGILNGTCNYILTRMFTEGLSFKECLEDAQRLGYAEVDPTFDIGGNDTAHKLALLTSLAFGTAVSLDDIYVEGISNISQIDIRAADELGYRIKLLGVALKTETGIEQRVHPTMVPTSSMIAQIHGVTNALSIQSDLLGELLLSGPGAGGTATASAVIGDLADIAKARPGFQYAPVLGRPALGLAPHKKARISHHAGGYFIRLNVHDRAGVFAAVAKHMAGNHISLESIVQRSFVESQSVKTIILITHETTEVNVQQALAAIEKDGHLVAKSQFIRIEPMVLEHHHHHH | not soluble |
| MFQLLAVCPMGLEAVVAKEIQELGYDTQVENGRIFFEGDESAIVRCNLWLRTADRIKIVMGRFNATTFDELFEQTKSLPWETVIDKEGNFPVQGRSVKSTLYSVPDCQAITKKAIVERLKHAHQEKGWLSETGAKYPVEVAILKDNVLLTIDTAGSGLNKRGYRIAQGEAPIKETLAASLIRLANWNGNTPLIDPFCGSGTIAIEACLIAQNIAPGFNRDFVSEQWNMMPPNIYDKFRDEADQLADYDKDIQVYASDIDPEMIEIAKRNAEEVGLGDIIQFNVKDVNTLSIDTDKPVALVGNPPYGERIGDREEVEEMYRYIGTLLKQHPHLSAYILTSNKEFEYLVNRKATKRRKLFNGYIECTYYQYWGKKQSNKN | not soluble |
| MAESSDKLYRVEYAKSGRASCKKCSESIPKDSLRMAIMVQSPMFDGKVPHWYHFSCFWKVGHSIRHPDVEVDGFSELRWDDQQKVKKTAEAGG | soluble |
| MQTDIHDEPVNLGFGVQFEPDDLYRLRSQFLPLGKIGGKPSWLNPKNLPKSADLLCNVCEKPLCFLMQVSANGGINDPPHAFHRSLFLFVCRNPSCSRTNDAANLKAFRCQLPRANDYYSFDGPMDPDLDGDVADPRAPADGPGLCRICGCSAAKKCAKCQVARYCSQAHQVIDWPAHKLECAKAATDGSITDEPKNPRNAFCFKEFGVEIDQEYMPANLFDGLSDDEGDEEEEEGNDEDETEEEKKARIREFEKFVKENKGKNADMTKEDLDEATAEQPKDIDFDKFNRLVNLQPDQIIRYKRYGQPLRATGLSELPEVVEPCELCGAPRRFEMQLMPHLLSLIDVDAIGQSIDWASVYVYTCSASCQIADDGYAKEFVAKQDFL | not soluble |
| MGSDKIHHHHHHMSNHSSSIPELSDNGIRYYQTYNESLSLWPVRCKSFYISTRFGQTHVIASGPEDAPPLVLLHGALFSSTMWYPNIADWSSKYRTYAVDIIGDKNKSIPENVSGTRTDYANWLLDVFDNLGIEKSHMIGLSLGGLHTMNFLLRMPERVKSAAILSPAETFLPFHHDFYKYALGLTASNGVETFLNWMMNDQNVLHPIFVKQFKAGVMWQDGSRNPNPNADGFPYVFTDEELRSARVPILLLLGEHEVIYDPHSALHRASSFVPDIEAEVIKNAGHVLSMEQPTYVNERVMRFFNAETGISR | not soluble |
| MGSDKIHHHHHHMIKSFWLENFGPISLLKADNLGKINLIIAENSKGKTFILKALYSVLKSHEEAHKGKNIRDFSEELRDKLYWTFQVEEIGDLVTRGKENPNERPLKLSMTLEDSSSVLFSFGRTTKKLIKPELYELSPRINANSIFLPPKEVLSLFDVIKKSEEEKRFGFDATYIDLVKALDIKPTKGRNYPEAAEARKDLEALFGGYVSYNDKKKAWVYEKDRQTFSINSTAEGVKKIGILDTLLGNRFLSPGSILFIDEPEANLHPKAINQFLEILFSLSKSKLGIQIFMSTHSYFVIKKLCLLARKHSESIPVFMPGKEKEQTTWVQENLQNSMPDNEIIGESIRLFREEIGVLSPETAWIG | not soluble |
| MKKYQQLAEQLREQIASGIWQPGDRLPSLRDQVALSGMSFMTVSHAYQLLESQGYIIARPQSGYYVAPQAIKMPKAPVIPVTRDEAVDINTYIFDMLQASRDPSVVPFASAFPDPRLFPLQQLNRSLAQVSKTATAMSVIENLPPGNAELRQAIARRYALQGITISPDEIVITAGALEALNLSLQAVTEPGDWVIVENPCFYGALQALERLRLKALSVATDVKEGIDLQALELALQEYPVKACWLMTNSQNPLGFTLTPQKKAQLVALLNQYNVTLIEDDVYSELYFGREKPLPAKAWDRHDGVLHCSSFSKCLVPGFRIGWVAAGKHARKIQRLQLMSTLSTSSPMQLALVDYLSTRRYDAHLRRLRRQLAERKQRAWQALLRYLPAEVKIHHNDSGYFLWLELPEPLDAGELSLAALTHHISIAPGKMFSTGENWSRFFRFNTAWQWGEREEQAVKQLGKLIQERL | not soluble |
| MRFFYDTEFIEDGETIDLVSIGIVCEDGREYYAVSTDADHSRANKWVRDNVLDKMPNPSSTLWKSNATIRQEVYEFLTSTPGNTELWAWVGAYDHVVLAQLWGDMRGLPKELPRYTHELKQYWEMAGRPRLPKLPEGNHDALVDARHNLQKFKICAESLPLNKRNVVNR | not soluble |
| MSLLTSNLGYPRIGENREWKKALESFWANDTTEEQLLATMKELRLNHLRVQQEQEVDLIPVGDFTLYDHVLDMAVMFGIIPKRFLQQGDTPTLSTYFAMARGSKNAQACEMTKWYNTNYHYIVPELHDAAPRLTKNAPLEAYLEAKNELGIDGKPVILGPYSFVKLAKGYEEDKLQETIQSLLPLYIQVIQELVDAGARSIQVDEPSLVTSISAREMALVTRIYEQINEAIADAPLFLQTYFDAVTFYEEVVSLPVKGIGLDFVHGGAKNLEALRTFGFPEDKVLAAGIIDGRNIWISNLRERHELVHQLEQHVAKDRLVLQPSCSLLHVPVTTKREEKLDPTLLGVLAFANEKLTELHTLKQLAAGNEAEVKEALEANDDALAALEKSGWRSGAATSHNLENKKRPQSFNERRPLQEEKWQLPLLPTTTIGSFPQTKDVRRTRSLWRKGELSTVEYERTMKSYIEKWINIQEELGLDVLVHGEFERNDMVEFFGEKLDGFAFTANGWVQSYGSRCVKPPIIYGNVSFTEPMTVAETVYAQSLTDKPVKGMLTGPVTILNWSFVRDDLPLTVIAHQIAEALTHEVTALEEAGIEMIQIDEPAIREGLPLKAEDQQEYLDWAVSAFRASCAHVKATTQIHTHMCYSEFHEMIEAIDDLDADVISIETSRSHGEMISAFEKTTYEKGIGLGVYDIHSPRVPSEEEMLNVIRRALTVLPASLFWVNPDCGLKTRAEKETVAALKNMVAAARAAREELKTKAEGHHHHHH | soluble |
| MLKTLAVANYRSINKLVIPLGRLNLVTGANGSGKSNLYRALRLLAETAQGGVVNALAKEGGLESTYWAGPEQISRRMSQGEVPIQGGPRKAARRLQLGFAGEDFGYAISLGLPDSSGHFMLPGHSSPIASRFTLDPWIKRESIWGGPLYRSASALVDRQGPMIRARAGRQWEVLAQHTSSGDSLFDRVGNLSSSPEVLHLREQIRGWRFYDHLRTDSQAPARRPQLGTRTPVLHHDGRDLAAALQTIIEVGDQQALHETISDAFPESRLEIDAVPGGLFGVQFYQEGLLRPLSAAELSDGTLRYLLLVAALLTPRPPTLMVLNEPETSLHPDLLPALARLIIRASQQCQVWVVSHARRLIAALQQDPECNCIVLEKQLGQTGIVGQRMLDEPAWNWPDLEHHHHHH | not soluble |
| MCMGTRSKRSERGRCRMHLERCVCPAIPRYDLTTRVVLVMHHREYPKPTATGPLALAALPNSELRIHGERDSLLDLGDLATPERRTLLLYPGDDVPVLTRELLERDRRPVTLVVPDGTWRQASRMGRRLPGLDHAEMVRLPEGLPTEWGIRRENHPQGLATFEAIARALGIIESPAVQTGLEELFRLMVRRTLSAGGRAILEHHHHHH | soluble |
